Earlier results as cited in patent publication KR20200047176A, “투라노스의 제조방법” (주식회사 삼양사, priority 2018, dated 2020).

Conditions: 2 M sucrose substrate

B1: NpAS: amylosucrase from Neisseria polysaccharea, known prior enzyme (protein, UniProt Q9ZEU2 1-636, looked up)
Amylosucrase: MLTPTQQVGLILQYLKTRILDIYTPEQRAGIEKSEDWRQFSRRMDTHFPKLMNELDSVYGNNEALLPMLEMLLAQAWQSYSQRNSSLKDIDIARENNPDWILSNKQVGGVCYVDLFAGDLKGLKDKIPYFQELGLTYLHLMPLFKCPEGKSDGGYAVSSYRDVNPALGTIGDLREVIAALHEAGISAVVDFIFNHTSNEHEWAQRCAAGDPLFDNFYYIFPDRRMPDQYDRTLREIFPDQHPGGFSQLEDGRWVWTTFNSFQWDLNYSNPWVFRAMAGEMLFLANLGVDILRMDAVAFIWKQMGTSCENLPQAHALIRAFNAVMRIAAPAVFFKSEAIVHPDQVVQYIGQDECQIGYNPLQMALLWNTLATREVNLLHQALTYRHNLPEHTAWVNYVRSHDDIGWTFADEDAAYLGISGYDHRQFLNRFFVNRFDGSFARGVPFQYNPSTGDCRVSGTAAALVGLAQDDPHAVDRIKLLYSIALSTGGLPLIYLGDEVGTLNDDDWSQDSNKSDDSRWAHRPRYNEALYAQRNDPSTAAGQIYQGLRHMIAVRQSNPRFDGGRLVTFNTNNKHIIGYIRNNALLAFGNFSEYPQTVTAHTLQAMPFKAHDLIGGKTVSLNQDLTLQPYQVMWLEIA
turanose conversion: 50.9%
